# Results taken from patent publication US20250346904A1, “CCR5 and CD4 siRNA-TARGETED PHOSPHOLIPID NANOSOMES THERAPEUTICS FOR TREATMENT OF HIV-1 AND OTHER DISEASES” (priority 2024, published 2025).
# B1: RANTES: CCL5, a CC chemokine with a molecular weight of 7,900, natural ligand of CCR5; unencapsulated in Table 13 (protein, UniProt P13501 24-91, looked up)
# C-C motif chemokine 5: SPYSSDTTPCCFAYIARPLPRAHIKEYFYTSGKCSNPAVVFVTRKNRQVCANPEKKWVREYINSLEMS
# modifications: ends and bridges not checked
# Legend:
# [1] = system: HIV-1RF virus (NIH ARP Cat #2804, dual-tropic); assay: Knockdown by BFU assay on P4/R5 cells, HIV-1RF, log dilutions (RNA-I-47); assay type: cell-based; settings: Human immunodeficiency virus 1, P4/R5, each drug as part of the Raltegravir + Efavirenz cocktail, read-out: Inhibitory Dose 50 (ID50) of the cocktail
# Protocol: MAGI P4/R5 cells carry the β-galactosidase gene under control of the HIV LTRs (Long Terminal Repeats). […] Briefly, 96 well plates of MAGI P4/R5 cells were infected with HIV-1 and fixed 2-3 days post infection with a fixative containing 1% formaldehyde and 0.2% glutaraldehyde. Fixed cells were washed with PBS (Phosphate Buffered Saline) and stained for β-galactosidase activity using X-gal at 1 mg/mL in PBS with 5 mM potassium ferricyanide and 5 mM potassium ferrocyanide as per published procedures. The cells were usually stained 3 hours to overnight, the number of blue foci counted under the microscope and reported as Blue Focus-forming Units (BFUs).
# In this study (RNA-I-47), 8 siRNA nanosomal formulations and 2 controls were evaluated for HIV-1 inhibition on P4/R5 cells using the BFU assay. The test formulations were the same 3 CD4_siRNAs, 3 CCR5_siRNAs, RANTES protein alone and RANTES protein co-encapsulated with a CCR5_siRNA in phospholipid nanosomes, tested previously in RNA-I-50b and RNA-I-51. The HIV-1 virus used was NIH ARP Cat #2804, a member of a panel HIV-1RF viruses and is dual-tropic with the ability to infect both CCR5 and CXCR4 receptor expressing cells.
# This study was similar to the previous studies with a few differences. […]
# [2] = system: HIV-1 RF, NIH Cat #2804; assay: Knockdown by BFU assay, HIV-1 RF, with and without lipofectamine (RNA-I-61); assay type: cell-based; settings: Naked (unencapsulated), Presence of Lipofectamine
# Protocol: A knockdown study (RNA-I-61) of the 8 nanoencapsulated and the corresponding unencapsulated (naked) siRNA preparations along with two controls described in the previous experiments was performed using freshly reconstituted materials with HIV-1 RF, NIH Cat #2804, diluted to contain ˜100 Blue Focus forming Units (BFUs) per dose of inoculum. […] The objective of this experiment was to test a range of concentrations of the inhibitors to determine the ID50 for each preparation based on the siRNA content. Since the nanosomal materials were freshly reconstituted, they were recharacterized.
# The reconstituted samples as well as the naked siRNA preparations were tested for virus infection inhibitory activity. The inhibition of infectivity was measured by counting the number of blue foci due to the induced B-galactosidase activity in the host MAGI P4/R5 cells by the infecting HIV. […] The number of BFUs for each treatment at various dilutions were used to calculate the % inhibition from the corresponding dilution for the Negative_siRNA samples. The inhibitor activity was also quantified by measuring the p24 antigen concentration in each of the wells.
# Infectivity Assay by BFUs: The percent inhibitions obtained with various Nanosomal_siRNA formulations versus Negative_siRNA formulations in the presence of lipofectamine are listed in Table 12.
# 50% Inhibitory Dose (ID50) Values: The data from RNA quantification using gel analysis and the infectivity results were used to plot dose response curves and calculate the ID50 (a.k.a. Inhibitory Concentration that results in 50% inhibition, [IC50]) values.
Molecule,IC50 [1],Inhibition of BFUs by Naked_siRNA vs Negative_siRNA ([2]; treatment dilution 1),Inhibition of BFUs by Naked_siRNA vs Negative_siRNA ([2]; treatment dilution 5),Inhibition of BFUs by Naked_siRNA vs Negative_siRNA ([2]; treatment dilution 15),Inhibition of BFUs by Naked_siRNA vs Negative_siRNA ([2]; treatment dilution 45),Inhibition of BFUs by Naked_siRNA vs Negative_siRNA ([2]; treatment dilution 135)
O=C1Nc2ccc(Cl)cc2[C@@](C#CC2CC2)(C(F)(F)F)O1 [Efavirenz],0.16 nM,–,–,–,–,–
B1,–,0%,34%,18%,0%,0%
